This is an account of results in publication PMC4666394, “Human HLTF mediates postreplication repair by its HIRAN domain-dependent replication fork remodelling”.

Substitutions are numbered along the chain they refer to.

Data set [1] deals with T1, HLTF HIRAN domain NN90,91AA (human, UniProt Q14527 56-168, N90A;N91A).
T1 sequence: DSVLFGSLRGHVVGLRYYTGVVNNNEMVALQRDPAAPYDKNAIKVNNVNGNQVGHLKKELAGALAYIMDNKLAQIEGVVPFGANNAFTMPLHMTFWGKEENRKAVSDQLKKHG
Nature of the data set: EMSA; Competition: 20 mM HEPES pH 7.5, 150 mM NaCl, 1 mM DTT, 0.1 ug/mL BSA, 0.2% NP40, 10% glycerol, room temperature 15 min; 6% native PAGE 0.5x Tris-borate without EDTA at 4 C; direct gel shift as in cited earlier work. Particulars: protein: recombinant, tags: FLAG or GST-FLAG, label: 5' 32P. Background: Mobility shift assays separate free from complexed probe on a gel.

Data set [2] addresses T2, HLTF HIRAN domain WT (human, UniProt Q14527 56-168).
T2 sequence: T1 sequence with A35N, A36N
The description is as above. Particulars: protein: recombinant, tags: FLAG (GST-FLAG cleaved by PreScission) or GST-FLAG, label: 5' 32P.

The target of the next data set is T3, GST-FLAG-HIRAN (WT) (human, UniProt Q14527 56-168).
T3 sequence: T1 sequence with A35N, A36N
In words: competition; 0-1 uM competitor against Cy5 fork; competes better than ssDNA; Competition: 20 mM HEPES pH 7.5, 150 mM NaCl, 1 mM DTT, 0.1 ug/mL BSA, 0.2% NP40, 10% glycerol, room temperature 15 min; 6% native PAGE 0.5x Tris-borate without EDTA at 4 C; direct gel shift as in cited earlier work. As to conditions: protein: recombinant; tags: GST-FLAG; label: 5' fluorescein on strand 4 (O3063); fork 1:4 2:3 3:4; two 30 bp daughter arms, 45 bp parental duplex, no ss region.

In data set [3] the target is T2, HLTF HIRAN domain WT. In words: EMSA; high affinity; Competition: 20 mM HEPES pH 7.5, 150 mM NaCl, 1 mM DTT, 0.1 ug/mL BSA, 0.2% NP40, 10% glycerol, room temperature 15 min; 6% native PAGE 0.5x Tris-borate without EDTA at 4 C; direct gel shift as in cited earlier work. Particulars: protein: recombinant; tags: FLAG (GST-FLAG cleaved by PreScission) or GST-FLAG; label: 5' 32P; fork 1:4 2:3 3:4; two 30 bp daughter arms, 45 bp parental duplex, no ss region.

The mark [4] stands for this setting: 30 bp duplex, 5' overhang 45 nt on strand 2.

B1: ds75-mer O1058/O1118 (dsDNA)
DNA 1: AGCTACCATGCCTGCCTCAAGAATTCGTAATATGCCTACACTGGAGTACCGGAGCATCGTCGTGACTGGGAAAAC
DNA 2: GTTTTCCCAGTCACGACGATGCTCCGGTACTCCAGTGTAGGCATATTACGAATTCTTGAGGCAGGCATGGTAGCT
For B1, the binding result (in data set [1] (blunt); in the data set with HLTF HIRAN domain WT [2] (blunt)) was “no binding” throughout.

B2: replication fork O1054/O1056/O1058/O3063 (structured_DNA)
DNA 1: AGCTACCATGCCTGCCTCAAGAATTCGTAA
DNA 2: TTACGAATTCTTGAGGCAGGCATGGTAGCT
DNA 3: B1 DNA 1
DNA 4: B1 DNA 2
With B2, the binding result with GST-FLAG-HIRAN (WT) was “binds”.

B3: partial duplex O1054/O1118 (mixed)
DNA 1: B2 DNA 1
DNA 2: B1 DNA 2
Take B3: the binding result is recorded as “no binding” in data set [1] (setting [4]) and “binds” with HLTF HIRAN domain WT [2] (setting [4]).

B4: replication fork O1054/O1056/O1058/O1118 (structured_DNA)
DNA 1: B2 DNA 1
DNA 2: B2 DNA 2
DNA 3: B1 DNA 1
DNA 4: B1 DNA 2
On to B4, for which the binding result with HLTF HIRAN domain WT [3] is recorded as “binds”; in data set [1] (fork 1:4 2:3 3:4, two 30 bp daughter arms, 45 bp parental duplex, no ss region), “no binding”.
